Results: patent US20050171008A1, “Monomeric insulin” (priority 2002, published 2005)

Experiments:
[1] = target: Lyspro (B28Lys, B29Pro insulin) (UniProt P01308); assay: self-association by size exclusion chromatography, Superdex 75, PBS pH 7.4, 80 umol/l protein
[2] = Determination of self-association property by size exclusion chromatography (Superdex 75); type: physicochemical
Procedure: The molecular homogeneity was measured by Symmetry factor Fs. Fs=W0.05h/2A, wherein, W0.05 is the band width at 0.05 peak height and A is the width of the first half peak at 0.05 peak height. The change of average molecular weight was measured by plotting the distribution coefficient Kav vs. protein concentration. Kav=(Vr−V0)/(Vc−Vo), wherein Vr is the retention volume, Vo the void volume and Vc the total bed volume.

Substance | Kav [1] | retention time on Superdex 75 column versus protein concentration ([2]; PBS pH7.4, 40-600 μmol/L) | Kav value versus protein concentration ([2]; PBS pH7.4, increasing concentration) | Fs value (symmetry factor, peak shape) versus protein concentration ([2]; PBS pH7.4, insulin: at concentrations above 400 umol/L)
Lyspro (B28Lys, B29Pro insulin) (from UniProt P01308 25-110; P01308 25-110) | 0.48 |  |  | 
zinc free insulin: zinc free porcine insulin used as control in size exclusion chromatography |  | decreased with increasing concentration | decreased with increasing concentration | increased markedly
